Data: the nanobody polyreactivity screen of Harvey et al. (2022)

Assay: yeast display, Sf9 membrane polyspecificity reagent, FACS + sequencing; frameworks hold sequencing errors
How it was run: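 In a synthetic yeast display library (Saccharomyces cerevisiae BJ5465), nanobody expression was induced with galactose for 36–48 hours. FACS gates were set low and high (top ~1%) using anti-HA fluorescence for expression and streptavidin fluorescence for binding of the Sf9 membrane reagent. Each polyreactivity label is drawn from the gate of origin.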

Row | Sequence | polyreactivity (PSR sort gate)
1 | QVQLVESGGGLVQAGGSLRLSCAASGSIFVKNVMGWYRQAPGKERELVAAISRGSSTYYADSVKGRFTISRDNAKNTVYLQMNSLKPEDTAVYYCAARGPYRLRNDEAFDYWGQGTQVTVSS | low polyreactivity
2 | QVQLVESGGGLVQAGGSLRLSCAASGSIFVKYAMGWYRQAPGKERELVAAISRSGGSTYYADSVKGRFTISRDNAKNTVYLQMNSLKPEDTAVYYCAASNYKGMNYWGQGTQVTVSS | high polyreactivity
3 | QVQLVESGGGLVQAGGSLRLSCAASGSIFVKYAMGWYRQAPGKERELVASITGRGGSTYYADSVKGRFTISRDNAKNTVYLQMNSLKPEDTAVYYCAARVASRHGWHNYWGQGSQVTVSS | high polyreactivity
4 | QVQLVESGGGLVQAGGSLRLSCAASGSIFVLNAMGWYRQAPGKERELVAAITNVGSTYYADSVKGRFTISRDNAKNTVYLQMNSLKPEDTAVYYCNAVVATSKYTDYYWGQGTQVTVSS | low polyreactivity
5 | QVQLVESGGGLVQAGGSLRLSCAASGSIFVLYAMGWYRQAPGKEREFVAAISRSGGSTYYADSVKGRFTISRDNAKNTVYLQMNSLKPEDTAVYYCAASSRLNRWNYYAFDYWGQGTQVTVSS | high polyreactivity
6 | QVQLVESGGGLVQAGGSLRLSCAASGSIFVPYAMGWYRQAPGKERELVAAISNGDSTYYADSVKGRFTISRDNGKNTVYLQMNSLNPEDTAVYYCAAPYAGWRDGGDYWGQGTQVTVSS | low polyreactivity
7 | QVQLVESGGGLVQAGGSLRLSCAASGSIFVPYAMGWYRQAPGKERELVAAISRGGDTNYADSVKGRFTISRDNAKNTVYLQMNSLKPEDTAVYYCNRARHQSSRWHGGYYYWGQGTQVTVSS | low polyreactivity
8 | QVQLVESGGGLVQAGGSLRLSCAASGSIFVPYAMGWYRQAPGKERELVAAISSGGGRTYYADSVKGRFTIARDNAKNTVYLQMNSLKPEDTAVYYCAARYYIGYGHRTYGYDYWGQGTQVTVSS | high polyreactivity
9 | QVQLVESGGGLVQAGGSLRLSCAASGSIFVPYAMGWYRQAPGKERELVAAISSRGGSTYYADSVKGRFTISRDTAKNTVYLQMNSLKPEDTAVYYCNTEISRNYYWALYGYWGQGTQVTVSS | low polyreactivity
10 | QVQLVESGGGLVQAGGSLRLSCAASGSIFVPYAMGWYRQAPGKERELVAAITRSSGSTYYADSVKGRFTISRDNAKNTVYVQMNSLKPQDSAVYYCAADFLLEFVYWGQGTQLTVSS | low polyreactivity
11 | QVQLVESGGGLVQAGGSLRLSCAASGSIFVPYTMGWYTQAPGKERELVASISYSGGTTYYADSVKGRFTISRDNAKNTVYLQMNSLKPEDTAVYYCAADWDESFSYRRYRHYDYWGQGTQVTVSS | low polyreactivity
12 | QVQLVESGGGLVQAGGSLRLSCAASGSIFVQYAMGWYRQAPGKERELVATISDDGSTNYADSVKGRFTISRDNAKNTVYLQMNSLKPEDTAVYYCAADTYYYVGADDYWGQGTQVTVSS | low polyreactivity
13 | QVQLVESGGGLVQAGGSLRLSCAASGSIFVRNAMGWCRQAPGKERELVAAITARGGSTYYADSVKGRFTISRDNAKNTVYLQMNSLKPEDTAVYYCARSYYYRGWAQWRYDYWGQGTQVTVSS | high polyreactivity
14 | QVQLVESGGGLVQAGGSLRLSCAASGSIFVRNAMGWYRPAPGKERELVADITSRGSSTYYADSVKGRFTISRDNAKNTVYLQMNSLKPEDTAVYYCNAVRYYVRTYIYRHDRGMDYWGQGTQVTVSS | low polyreactivity
15 | QVQLVESGGGLVQAGGSLRLSCAASGSIFVRNAMGWYRQAPGKEREFVAIRFSGATTYYADSVKGRFTISRDNAKNTVYLQMNSLKPEDTAVYYCAAVARTYGRTSYYWGQGTQVTVSS | high polyreactivity
16 | QVQLVESGGGLVQAGGSLRLSCAASGSIFVRNAMGWYRQAPGKERELVAAITYSGSRTYYADSVKGRFTISRDNAKNTVYLQMNSLKPEDTEVYYCAKVRVLVDKWSTFYEYYYWGQGTQVTVSS | low polyreactivity
17 | QVQLVESGGGLVQAGGSLRLSCAASGSIFVRNVMGWYRQAPGKERELVAGISWNGGSTFYADSVKGRFTISRDNAKNTVYLQMNSLKPEDTAVDYCATPYGRHGWFYLYDYWGQGTQVTVSS | low polyreactivity
18 | QVQLVESGGGLVQAGGSLRLSCAASGSIFVRYATMGWYRQAPGKERELVAAISRSGGSTYYADSVKGRFTISRDNAKNTVYLQMNSLKPEDTAVYYCANVSPSLRASGYDYWGQGTQVTVSS | high polyreactivity
19 | QVQLVESGGGLVQAGGSLRLSCAASGSIFVRYTIVWYRQSTWKEMELVAAITSGGRTYYADSVKGRFTISRDNAKNTVYLQMNSLKPEDTAVYYSADVPHIRRYGFYYWGQGTQVTVSS | high polyreactivity
20 | QVQLVESGGGLVQAGGSLRLSCAASGSIFVRYTMGWYRQAPGKERELVAAISWGGGSTYYADSVKGRFTISRDNAKNTVYLQMNSLKPEDTAVYYCNKRYIQLYDYWGQGTQVTVSS | low polyreactivity
21 | QVQLVESGGGLVQAGGSLRLSCAASGSIFVRYTMGWYRQAPGKERELVAGISSRGGSTYYADSVKGRFTISRDNAKNTVYLQMNSLKPEDTAVYYCAATYFRRVVPGYNYWGQGTQVTVSS | high polyreactivity
22 | QVQLVESGGGLVQAGGSLRLSCAASGSIFVSNAMGWYRQAPGKERELVAAITARDFSTYYADSVKGRFTISRDNAKNTVYLEMNSQKPEDTAVYYCAGNSSTYPSDDSYDYWGQGTQVTVSS | low polyreactivity

Row | Sequence | polyreactivity (PSR sort gate)
23 | QVQLVESGGGLVQAGGSLRLSCAASGSIFVSNAMGWYRQAPGKERELVAAITARDVSTYYADSVKGRFTISRDNAKNTVYLQMISLKPEDTAVYYCAGNSSTYPSDDSYVYWGQGTQVTVSS | low polyreactivity
24 | QVQLVESGGGLVQAGGSLRLSCAASGSIFVSNAMGWYRQAPGKERELVASISQDGGSTYYADSVKGRFTISRDNAKNTVYLQMNSLKPEDTADYYCAAKAEYYYYNGGTTYLVRYYYWGQGTQVTVSS | low polyreactivity
25 | QVQLVESGGGLVQAGGSLRLSCAASGSIFVSNAMGWYRQAPGTERELVAAISGGGSTYYADSVKGRFTISRDNAKNTVFLQMNSLKPEDTAVYYCAKKGGHRTYGYDSWGQGTQVTVSS | low polyreactivity
26 | QVQLVESGGGLVQAGGSLRLSCAASGSIFVSYAMGWYRQAPGKEREFVAAITRSGGSTYYADSVKGRFTISRDNAKNTVYLQMNSLKPEDTAVYYCAARSYLGAYRRYYWGQGTQVTVSS | high polyreactivity
27 | QVQLVESGGGLVQAGGSLRLSCAASGSIFVSYAMGWYSQAPGKERELVAVISYSGVSTYYADSVKGRFTISRDNAKNTVYLQINSLKPEDTAVYYCATRQYGTRHILKYNYWGQGTQVTVSS | low polyreactivity
28 | QVQLVESGGGLVQAGGSLRLSCAASGSIFVTYAMGWYRQAPGKERELVASITGRGGSTYYADSVKGRFTISRDNAKNTVYLQMNSLKPEDTAVYYCAARVASRHGWHNYWGQGTQVSVSS | high polyreactivity
29 | QVQLVESGGGLVQAGGSLRLSCAASGSIFVVNGMGWYRQAPGKERELVAAITGDGTTYYADSVKGRFTISRDNAKNTVYLQMNSLKPEDSAVYYCAALFTPALSEYDYWGQGTQVTVSS | high polyreactivity
30 | QVQLVESGGGLVQAGGSLRLSCAASGSIFVVYAMGWYRQAPGKERELVAAISWGIGSTYYADSVKGRFTISRDNAKYTVYLQMNSLKPEDTAVYYCAAETDIVLYDYWGQGTQVTVSS | low polyreactivity
31 | QVQLVESGGGLVQAGGSLRLSCAASGSIFVVYAMGWYRQAPGKERELVAGISDGDNTNYADSVKGRVTISRDNAKNTVYLQMNSLKPEDTAVYYCNADGTSRNLEGFDYWGQGTQVTVSS | low polyreactivity
32 | QVQLVESGGGLVQAGGSLRLSCAASGSIFVVYAMGWYRQAPGKERELVAGISGRDGSTYYADSVKGRFTISRDNGKNTVYLQMNSLKPEDTAVYYSARVYWGQGTQVTVSS | low polyreactivity
33 | QVQLVESGGGLVQAGGSLRLSCAASGSIFVVYSMGWYRQAPGKERELVAGISYGDNTNYADSVKGRFTISRDNAKNTVYLQMNSLKPVDTAVYYCNADGTSRNLEGFDYWGQGTQVTVSS | low polyreactivity
34 | QVQLVESGGGLVQAGGSLRLSCAASGSIFVYKAMGWYRQAPGKERELVAGITFIGGSTYYADSVKGRFTISRDNAKNTVYLQMNCLKPEDTAVYYCNADVAPGIFYGYDSWGQGTQVTVSS | low polyreactivity
35 | QVQLVESGGGLVQAGGSLRLSCAASGSIFVYNAMGRYRQAPGKEREYVAAITYSGGSTYYADSVKGRFTISRDNAKNTVDLQMNSLKPEDTAVYYCAADYFQHVPKYGYWGQGTQVNVSS | low polyreactivity
36 | QVQLVESGGGLVQAGGSLRLSCAASGSIFVYNAMGWYRPAPGKERELVAGITLIGGSTYYADSVKGRFTISRDNAKNTVYLQMNSLKPEDTAVYYCAVLVVGSTTQDEPYFSGVEHDYWGQGTQVTVSS | low polyreactivity
37 | QVQLVESGGGLVQAGGSLRLSCAASGSIFVYNAMGWYRQAPGKERELVAAIDTVGSTNYADSVKGRFTISRDNAKNTVYLQMNSVKPVDPAVYYCAVVTPYWSFYEQVIPSNYWGQGTQVTVSS | low polyreactivity
38 | QVQLVESGGGLVQAGGSLRLSCAASGSIFVYNAMGWYRQAPGKERELVAAISQRGGSTYYADSVKGRFTISRDNAKNTVYLQMNSLKPEDTAVYYCAAAPGDSGDDYWGQGTQVTVSS | low polyreactivity
39 | QVQLVESGGGLVQAGGSLRLSCAASGSIFVYNAMGWYRQAPGKERELVAAISQRGGSTYYADSVKGRFTISRDYSKNTVYLQMNSLKPEDTAVYYCAAGPGDSGDDYWGQGTQVTVSS | low polyreactivity
40 | QVQLVESGGGLVQAGGSLRLSCAASGSIFVYNAMGWYRQAPGKERELVAGITFIGGSTYYADSVKGRFTISRDTAKNTVYLPMNSLKPEDTAVYYRNADGAPGIFYGYDSWGQGTQVTVSS | low polyreactivity
41 | QVQLVESGGGLVQAGGSLRLSCAASGSIFVYNAMGWYRQAPGKEREWVAGITFIGGSTYYADSVKGRFTISRDNEKNTVYLQMNSLKPEDTAFYYCATDLPGGRYYGPYDYWGQGTQVTVSS | low polyreactivity
42 | QVQLVESGGGLVQAGGSLRLSCAASGSIFVYNAMGWYRQAPGNERELVAGINYSGGSTYYADSVKGRFTISRDNATNTVYLQMNSLKPEDTAVYSCARRRPYQWPYNYWGQGTQVTVSS | high polyreactivity
43 | QVQLVESGGGLVQAGGSLRLSCAASGSIFVYNDMGWYRPAPGKERELVAGIDWSGDRTYADSVKGRFTISRDNAKNTVYLQMNSLKPEDTAVYYCNADEWRWDEIIPYAVDYWGQGTQVTVSS | low polyreactivity
